Laboratory results taken from paper PMC5477490.

Legend:
3E1 Fab, P01857;P01834 = conditions: parent: est. 100; read off a plot
[1] = target: HA ectodomain of A/Washington/05/2011(H1N1) (influenza A virus A/Washington/05/2011(H1N1)); test: crystal structure
[2] = target: HA ectodomain of A/Washington/05/2011(H1N1) (influenza A virus A/Washington/05/2011(H1N1)); test: not stated; purified HA ectodomain in solution; data in Supplementary Fig. 2

Substance | percent of parent (3E1 Fab, P01857;P01834) [%] | stoichiometry N [1] | stoichiometry N [2]
full-length, wild-type HA from A/Washington/05/2011 (H1N1) HA1:H18Q | 1 | – | –
HA ectodomain of A/Washington/05/2011(H1N1) (domain or fragment) | – | 3 | 3
full-length, wild-type HA from A/Washington/05/2011 (H1N1) HA2:D19N | 7 | – | –
full-length, wild-type HA from A/Washington/05/2011 (H1N1) HA2:I45F | 1 | – | –
full-length, wild-type HA from A/Washington/05/2011 (H1N1) HA1:NAT | 2 | – | –
